In publication PMC6158172, “A bidentate Polycomb Repressive-Deubiquitinase complex is required for efficient activity on nucleosomes” (Nature Communications, 2018):
Numbering of substitutions follows the chain as printed. Names and notes keep the numbering of the source.

T1: Calypso(L340A)^43–404, as in the Calypso(L340A)–ASX complex (Drosophila melanogaster, UniProt Q7K5N4 43-404, L340A)
T1 construct: Calypso, Drosophila, residues 43-404, L340A; Handled together with ASX 207-340; source: E. coli BL21 (DE3), co-expressed with ASX, purified (Ni-NTA, 3C cleavage, HiTrap Q, Superdex 200); not shown: His6, N-terminal, cleaved
T1 sequence (looked up): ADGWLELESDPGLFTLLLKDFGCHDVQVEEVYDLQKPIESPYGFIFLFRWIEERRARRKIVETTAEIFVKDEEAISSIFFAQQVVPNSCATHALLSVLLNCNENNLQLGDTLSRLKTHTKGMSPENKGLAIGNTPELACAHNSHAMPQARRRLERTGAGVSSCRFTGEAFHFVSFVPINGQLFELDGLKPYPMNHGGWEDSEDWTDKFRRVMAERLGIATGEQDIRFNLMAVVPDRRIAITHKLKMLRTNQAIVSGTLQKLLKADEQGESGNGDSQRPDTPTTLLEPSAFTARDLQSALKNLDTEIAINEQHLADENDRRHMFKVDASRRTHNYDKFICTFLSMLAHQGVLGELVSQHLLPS

T2: Calypso(N292R)^43–404, as in the Calypso(N292R)–ASX complex (Drosophila melanogaster, UniProt Q7K5N4 43-404, N292R)
T2 construct: Calypso, Drosophila, residues 43-404, N292R; Handled together with ASX 207-340; source: E. coli BL21 (DE3), co-expressed with ASX, purified (Ni-NTA, 3C cleavage, HiTrap Q, Superdex 200); not shown: His6, N-terminal, cleaved
T2 sequence (looked up): T1 sequence (looked up) with N250R, A298L

B1: ASX^207–340 (Deubad domain of Additional Sex Combs), as in the Calypso^43–404–ASX^207–340 complex (domain or fragment, Drosophila melanogaster, UniProt Q9V727 207-340, looked up)
chain: DGKIDLETPDSILASTNLRALLNKQTFSLLPPLYQYNLIQLLPSVDREASESEAIRLSASCLNNEFFARACLEWRERLSEGEFTPENQLKLKTEAEREKNKLDPWKLKHFEPFWGEKNSRG
notes: Additional Sex Combs (ASX), Drosophila, Deubad domain, residues 207-340 with residues 258-270 omitted; Second open reading frame of the co-expression construct; also called ASX Deubad; source: E. coli BL21 (DE3), co-expressed with His6-Calypso, purified (Ni-NTA, HiTrap Q, Superdex 200)
B2: Calypso^43–404 (wild type), as in the Calypso^43–404–ASX^207–340 complex (enzyme, Drosophila melanogaster, UniProt Q7K5N4 43-404, looked up)
chain: T1 sequence (looked up) with A298L
notes: Calypso, deubiquitinase of the Drosophila PR-DUB, residues 43-404 (UCH domain, coiled-coil hairpin, ULD; lacks the C-terminal positively charged tail 405-471); Always handled together with ASX 207-340, with which it was co-expressed; two copies per 2:2 complex at high concentration; also called WT^(no tail); Calypso^(no tail); source: E. coli BL21 (DE3), co-expressed with ASX, purified …
B3: Calypso(M288R)^43–404, as in the Calypso(M288R)–ASX complex (enzyme, Drosophila melanogaster, UniProt Q7K5N4 43-404, looked up)
chain: T1 sequence (looked up) with M246R, A298L
notes: Calypso, Drosophila, residues 43-404, M288R; Handled together with ASX 207-340; source: E. coli BL21 (DE3), co-expressed with ASX, purified (Ni-NTA, 3C cleavage, HiTrap Q, Superdex 200); not shown: His6, N-terminal, cleaved

What was measured:
[1] = target: T1, Calypso(L340A)^43–404, as in the …; experiment: SEC-MALLS; Superdex 200 5/150 GL Increase, 20 mM HEPES pH 7.5, 100 mM NaCl; wild type injected at 90 and 45 μM, wild type and mutants at ~50 μM; details: both partners purified
[2] = target: T2, Calypso(N292R)^43–404, as in the …; experiment: as above; details: both partners purified
[3] = target: B2; experiment: AUC; sedimentation velocity, c(s) analysis, 40 µM complex, 20 °C, 20 mM HEPES pH 7.8, 100 mM NaCl, 0.8 mM TCEP, 50,000 r.p.m.; details: both partners purified
[4] = target: the molecule itself; experiment: as above
[5] = target: the molecule itself; experiment: SEC-MALLS; Superdex 200 5/150 GL Increase, 20 mM HEPES pH 7.5, 100 mM NaCl; wild type injected at 90 and 45 μM, wild type and mutants at ~50 μM

Binder: B1
stoichiometry N [1]: 1 ASX per Calypso (1:1)
stoichiometry N [2]: 1 ASX per Calypso (1:1)
stoichiometry N [3]: 1 ASX per Calypso (2:2)

Binder: B2
stoichiometry N [4]: 2

Binder: B3
binding result [5]: binds
